For test [1], the target named is T1, soluble recombinant NKp65 ectodomain with proline at position 131 (NKp65-Pro131) (human, UniProt D3W0D1 63-207, biotin on the N-terminal BirA tag (enzymatic, BirA ligase)).
T1 chain: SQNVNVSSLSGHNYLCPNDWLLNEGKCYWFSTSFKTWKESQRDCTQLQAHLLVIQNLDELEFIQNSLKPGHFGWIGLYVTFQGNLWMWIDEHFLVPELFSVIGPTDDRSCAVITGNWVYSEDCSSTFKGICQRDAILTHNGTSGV
In words: SPR; KD1 of bivalent fit, multi-cycle kinetics. A general note: SPR reads the build-up and loss of mass on a sensor chip optically.

Test [2] has as its target T2, soluble recombinant NKp65 ectodomain with threonine at position 131 (NKp65-Thr131) (human, UniProt D3W0D1 63-207, substitution of proline by threonine at amino acid position 131, biotin on the N-terminal BirA tag (enzymatic, BirA ligase)).
T2 sequence: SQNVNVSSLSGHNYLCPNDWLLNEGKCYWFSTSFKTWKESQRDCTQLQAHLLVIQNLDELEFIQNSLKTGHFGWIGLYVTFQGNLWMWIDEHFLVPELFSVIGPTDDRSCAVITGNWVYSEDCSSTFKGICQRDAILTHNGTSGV
The experiment in a line: SPR; KD1 of bivalent fit, multi-cycle kinetics.

Test [3] concerns the target soluble recombinant NKp65 ectodomain with proline at position 131 (NKp65-Pro131) (human) (UniProt D3W0D1). The experiment in a line: SPR; single-cycle kinetics, Biacore X100; 73.4 ± 12.4 RU biotinylated NKp65 immobilised on a streptavidin chip (Sensor Chip SA), pulsed 120 s with sKACL 0.247-20 nM, flow 30 µl/min, final dissociation 600 s; bivalent binding model.
Test [4] concerns the target soluble recombinant NKp65 ectodomain with threonine at position 131 (NKp65-Thr131) (human) (UniProt D3W0D1). The description is as above.
In test [5] the target is soluble recombinant NKp65 ectodomain with proline at position 131 (NKp65-Pro131) (human) (UniProt D3W0D1). In words: SPR; mean of KD1 (bivalent model) from at least three measurements, protein produced independently twice, 2 different chip lots; biotinylated NKp65 immobilised on a streptavidin chip, sKACL as analyte; which runs were pooled is not told.
Test [6] deals with soluble recombinant NKp65 ectodomain with threonine at position 131 (NKp65-Thr131) (human) (UniProt D3W0D1). The description is as above.

B1: recombinant KACL ectodomain (sKACL) (ligand)
chain: WSKHAKPVACSGDWLGVRDKCFYFSDDTRNWTASKIFCSLQKAELAQIDTQEDMEFLKRYAGTDMHWIGLSRKQGDSWKWTNGTTFNGWFEIIGNGSFAFLSADGVHSSRGFIDIKWICSKPKYFL
B1: the Kd came to 13.6 nM in test [1], 57.1 nM in test [2], 2.6 nM in test [3] and 20.3 nM in test [4]. Moreover, the KD1 (bivalent fit) in test [5] worked out at 8.2 nM; in test [6], 35 nM.
